Assays:
[1] = molecular target: feline immunodeficiency virus (FIV) Gag, Villefranche strain, expressed by ALVAC recombinants (vCP21 (feline immunodeficiency virus, Villefranche strain)); test: sandwich kinetic ELISA, plate coated with pooled FIV env-specific MAb 2 ug/well (mismatched capture control), gag lysate 0.2 ug/well, control rabbit serum 1:100
[2] = molecular target: feline immunodeficiency virus (FIV) Gag, Villefranche strain, expressed by ALVAC recombinants (vCP21 (feline immunodeficiency virus, Villefranche strain)); test: sandwich kinetic ELISA, plate coated with pooled FIV env-specific MAb 2 ug/well (mismatched capture control), gag lysate 5 ug/well, control rabbit serum 1:100
[3] = molecular target: feline immunodeficiency virus (FIV) Gag, Villefranche strain, expressed by ALVAC recombinants (vCP21 (feline immunodeficiency virus, Villefranche strain)); test: sandwich kinetic ELISA, plate coated with pooled FIV gag-specific MAb 2 ug/well, gag lysate 1 ug/well, control rabbit serum 1:100
[4] = molecular target: feline immunodeficiency virus (FIV) Gag, Villefranche strain, expressed by ALVAC recombinants (vCP21 (feline immunodeficiency virus, Villefranche strain)); test: sandwich kinetic ELISA, plate coated with pooled FIV gag-specific MAb 2 ug/well, gag lysate 0.2 ug/well, control rabbit serum 1:100
[5] = molecular target: feline immunodeficiency virus (FIV) Gag, Villefranche strain, expressed by ALVAC recombinants (vCP21 (feline immunodeficiency virus, Villefranche strain)); test: sandwich kinetic ELISA, plate coated with pooled FIV env-specific MAb 2 ug/well (mismatched capture control), gag lysate 1 ug/well, control rabbit serum 1:100
[6] = molecular target: feline immunodeficiency virus (FIV) Gag, Villefranche strain, expressed by ALVAC recombinants (vCP21 (feline immunodeficiency virus, Villefranche strain)); test: sandwich kinetic ELISA, plate coated with pooled FIV gag-specific MAb 2 ug/well, gag lysate 5 ug/well, control rabbit serum 1:100

Rabbit A039 prebleed serum
KELISA (mOD/min) [1]: 0.9 mOD/min
KELISA (mOD/min) [2]: 1 mOD/min
KELISA (mOD/min) [3]: 1.2 mOD/min
KELISA (mOD/min) [4]: 1.3 mOD/min
KELISA (mOD/min) [5]: 0.8 mOD/min
KELISA (mOD/min) [6]: 1 mOD/min
